Where “and” joins values, the source holds several entries; their conditions need not be identical. Equal values may be shown once.
Columns and labels:
hLAMP1_ΔGYQTI = target: T1, hLAMP1_ΔGYQTI (human, UniProt P11279 29-412); experiment: flow cytometry, transfected 293-F cells
T1 construct: also called pXL5626
T1 sequence: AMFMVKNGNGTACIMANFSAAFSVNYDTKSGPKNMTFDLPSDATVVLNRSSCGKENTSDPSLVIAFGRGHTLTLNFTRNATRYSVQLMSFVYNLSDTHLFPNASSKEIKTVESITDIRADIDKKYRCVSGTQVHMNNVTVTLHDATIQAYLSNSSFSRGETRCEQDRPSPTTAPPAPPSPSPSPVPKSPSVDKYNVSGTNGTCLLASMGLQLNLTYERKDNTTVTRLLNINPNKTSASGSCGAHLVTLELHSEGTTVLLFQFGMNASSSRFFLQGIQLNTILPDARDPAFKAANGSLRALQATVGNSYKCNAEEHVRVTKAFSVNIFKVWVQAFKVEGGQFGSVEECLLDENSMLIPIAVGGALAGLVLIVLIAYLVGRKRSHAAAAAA

[1] = target: T2, human LAMP1 at the cell surface (human, UniProt P11279 29-417); experiment: cell-based or functional assay
T2 sequence: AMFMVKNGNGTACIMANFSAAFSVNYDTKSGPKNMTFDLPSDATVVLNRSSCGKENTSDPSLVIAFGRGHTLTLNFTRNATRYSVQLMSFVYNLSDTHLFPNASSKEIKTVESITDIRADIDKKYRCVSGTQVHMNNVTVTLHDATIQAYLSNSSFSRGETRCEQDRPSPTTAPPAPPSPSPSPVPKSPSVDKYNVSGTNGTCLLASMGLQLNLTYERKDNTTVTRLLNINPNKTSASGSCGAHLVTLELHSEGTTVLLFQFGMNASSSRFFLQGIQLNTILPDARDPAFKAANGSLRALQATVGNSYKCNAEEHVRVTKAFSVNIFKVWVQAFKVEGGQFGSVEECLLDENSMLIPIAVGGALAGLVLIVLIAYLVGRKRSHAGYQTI

B1: huMAb1_1 (antibody, human IgG1, kappa)
heavy: not shown
light: DIQMTQSPSSLSASVGDRVTITCKASQDIDRYMAWYQDKPGKAPRLLIHDTSTLQSGVPSRFSGSGSGRDYTLTISNLEPEDFATYYCLQYDNLWTFGGGTKVEIKRTVAAPSVFIFPPSDEQLKSGTASVVCLLNNFYPREAKVQWKVDNALQSGNSQESVTEQDSKDSTYSLSSTLTLSKADYEKHKVYACEVTHQGLSSPVTKSFNRGEC
notes: humanized, VH1-huIgG1 and VL1-huCk
mean fluorescence (hLAMP1_ΔGYQTI): 864 | ADCP EC50, 3/1, batch 67130713495 [1]: 470 pM and 360 pM | ADCP EC50, 3/1, batch 67131354967 [1]: 500 pM | ADCP EC50, 3/1, batch 67131617470 [1]: 560 pM | ADCP EC50, 6/1, batch 67130713495 [1]: 980 pM and 340 pM | ADCP EC50, macrophages/target 3/1, batch 67131617438 [1]: 280 pM
